T1: human CD276 protein (human, UniProt Q5ZPR3 29-534)
T1 construct: whole, on cells; for SKOV3 and the other cancer lines the protein is the cells' own; also called B7-H3; B7H3
T1 sequence (looked up): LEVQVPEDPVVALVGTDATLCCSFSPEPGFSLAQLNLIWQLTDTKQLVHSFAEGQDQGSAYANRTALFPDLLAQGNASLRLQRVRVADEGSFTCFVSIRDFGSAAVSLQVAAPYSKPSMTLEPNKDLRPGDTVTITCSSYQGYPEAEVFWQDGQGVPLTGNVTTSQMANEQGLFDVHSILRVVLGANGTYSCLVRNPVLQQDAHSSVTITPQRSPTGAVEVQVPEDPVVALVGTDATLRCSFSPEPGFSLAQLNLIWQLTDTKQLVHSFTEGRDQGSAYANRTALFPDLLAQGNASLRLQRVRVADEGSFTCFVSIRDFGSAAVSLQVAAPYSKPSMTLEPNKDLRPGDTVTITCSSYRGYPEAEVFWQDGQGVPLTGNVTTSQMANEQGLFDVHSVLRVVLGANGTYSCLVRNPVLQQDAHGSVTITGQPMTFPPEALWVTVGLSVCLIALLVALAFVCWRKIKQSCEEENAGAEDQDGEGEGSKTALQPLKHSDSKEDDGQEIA

T2: mouse CD276 protein (mouse, UniProt Q8VE98 29-316)
T2 construct: whole, on cells; also called mCD276; CHO-S-mCD276
T2 sequence (looked up): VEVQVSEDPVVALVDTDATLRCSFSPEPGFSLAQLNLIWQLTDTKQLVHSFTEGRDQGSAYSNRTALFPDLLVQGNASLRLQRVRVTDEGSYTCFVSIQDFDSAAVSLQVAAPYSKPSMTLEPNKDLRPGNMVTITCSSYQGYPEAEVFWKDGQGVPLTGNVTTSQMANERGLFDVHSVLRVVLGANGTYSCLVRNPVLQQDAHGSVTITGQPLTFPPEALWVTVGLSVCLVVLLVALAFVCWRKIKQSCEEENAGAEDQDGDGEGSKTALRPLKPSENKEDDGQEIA


Legend:
[1] = target: T3, Macaca fascicularis CD276 (Macaca fascicularis); experiment: FACS on CHO-S-cynoCD276 cells
T3 construct: whole, on cells; also called cynomolgus monkey CD276; cynoCD276
Summary of the method: (§1)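 Cross-reactivity checked by FACS on CHO-S cells stably over-expressing the respective CD276, with parental CHO-S as control. Cells incubated with subclone antibodies, bound primary detected with fluorescent dye-conjugated secondary antibody; read-out is median fluorescence intensity.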

human CD276 protein = target: T1, human CD276 protein; experiment: FACS on CHO-S-hCD276 cells
Summary of the method: as §1

mouse CD276 protein = target: T2, mouse CD276 protein; experiment: FACS on CHO-S-mCD276 cells
Summary of the method: as §1

FACS MFI [1] | FACS MFI (human CD276 protein) | FACS MFI (mouse CD276 protein) | Binder
56500 | 74300 | 1670 | 22-E11-C3-F2 (antibody, V domains shown, mouse monoclonal antibody (hybridoma)) VH: QIQLVQSGPELKRPGETVKISCKASGYSFTNYGMNWVKQAPGKGLKWMGWINPYTGEPTYADDFKGRFAMSLETSASAAYLQINNLKNEDMATYFCGRDDGYHYTMNYWGQGTSVTVSS VL: DVVMTQPPLSLPVSLGDQASISCRSSQSLIHSNGDTYLHWYLQKPGQSPKLLIYKVSIRFSGVPDRFSGSGSGTDFTLKISRVEAEDLGVYFCSQSTYVPWTFGGGTKLEIK
26400 | 32800 | 2800 | 11-G10-B4-B11 (antibody, V domains shown, mouse monoclonal antibody (hybridoma)) VH: DVQLQESGPGLVKPSQSLSLTCTVTGYSITSDYAWNWIRQFPGNKLEWMGYISYSGSTSYNPSLKSRISITRDTSKNQFFLQLNSVTTEDTATYYCARGGPWFAYWGQGTLVTVSA VL: DVVMTQTPLSLPVSLGDQASISCRSSQSLVHSNGNTYLHWYLQKPGQSPKLLIYKVSNRFSGVPDRFSGSGSGTDFTLKISRVEAEDLGVYFCSQSTHVPFTFGSGTKLEIK
20200 | 71500 | 1340 | 21-B3-B1-H5 (antibody, V domains shown, mouse monoclonal antibody (hybridoma)) VH: QIQLVQSGPELKKPGETVKISCKASGYIFRNYGMNWVKQAPGKGLKWMGWINSYTGKPTYVDDFKGRFAFSLETSASTAYLQINNLKNEDMATYFCARDDGYWYTMDYWGQGTSVTVSS VL: DVVMTQTPLSLPVSLGDQASISCRSSQSLVHSNGHTYLHWYLQKPGQSPKLLIYKVSNRFSGVPDRFSGSGSGTDFTLKISRVEAEDLGVYFCSQSTHVPWTFGGGTKLEIK
36700 | 127000 | 1300 | 23-F10-G4-F11 (antibody, V domains shown, mouse monoclonal antibody (hybridoma)) VH: EVQLQESGPDLVRPGALVKLSCKSSGFNIKDYPIHWVRQRPEQGLEWIGWFDPDNGNVIYDPRFQGKASITADTSSNTAYLQLNSLTSEDTAVYYCSSPYGAMDYWGQGTSVTVSS VL: QIVLTQSPEIMSASPGEKVTMTCSASSSVSYIHWYQQKSGTSPKRWIYDTSKLASGVPARFSGSGSGTSYSLTIRSMEAEDAATYYCQQGSSNPRTFGGGTKLEIK

More lines, now with the values behind:

Binder | FACS MFI [1] | FACS MFI (human CD276 protein) | FACS MFI (mouse CD276 protein)
16-C6-F7-F5 (antibody, V domains shown, mouse monoclonal antibody (hybridoma)) VH: QIQLVQSGPEVKKPGETVKISCKASGYTFTKYGINWVKQAPGEGLKWMGWIWTYTGKPTYGDDFKGRFAFSLETSASTAYLQISDLKIEDMATYFCARDDGYYYTMNYWGQGTSVTVSS VL: DIVMTQTPLSLPVSLGDQASISCRSSQSLLHTNGDTYLHWYLQKAGQPPKLLIYKVSNRFSGVPDRFSGSGSGTDFTLKISRVEAEDLGVYFCSQSTHIPWTFGGGTKLEIK | 19500 | 141000 | 1830
16-G3-D10-C10 (antibody, V domains shown, mouse monoclonal antibody (hybridoma)) VH: QIQLVQSGPELKKPGETVKISCKASGYTFRNYGMNWVKQGPGKDLKWMGWINPYTGEPTYIGDFKGRFAFSLETSANSAYLQINNLNNEDMATYFCARDDGYWYTMDYWGQGTSVTVSS VL: DVVMTQTPPSLPVSLGDQASIPCRSSQSLVHSNGITYLHWYLQKPGQSPKLLIYKVSNRFSGVPDRFSGSGSGTDFTLKISRVEAEDLGVYFCSQSTHVPWTFGGGTKLEIK | 6190 | 23200 | 1320
26-D2-D6-B12 (antibody, V domains shown, mouse monoclonal antibody (hybridoma)) VH: QIQLVQSGPELKKPGETVKISCKASGYIFRNYGMNWVKQAPGKGLKWMGWINSYTGKPTYVDDFKGRFAFSLETSASTAYLQINNLKNEDMATYFCARDDGYWYTMDYWGQGTSVTVSS VL: DVVMTQTPLSLPVSLGDQASISCRSSQSLVHSNGHTYLHWYLQKPGQSPKLLIYKVSNRFSGVPDRFSGSGSGTDFTLKISRVEAEDLGVYFCSQSTHVPWTFGGGTKLEIK | 63100 | 47500 | 1310
11-C12-F4-F6 (antibody, V domains shown, mouse monoclonal antibody (hybridoma)) VH: QIQLVQSGPELKKPGETVKISCKASGYTFRNFGMNWVKQGPGKGLKWMGWINPYTGEPTYVGDFKGRFAFSLETSASTAYLQINNLKNEDMATYFCARDDGYWYTMDYWGQGTSVTVSS VL: DVVMTQTPPSLPVSLGDQASIPCRSSQSLVHSNGITYLHWYLQKPGQSPKLLIYKVSNRFSGVPDRFSGSGSGTDFTLKISRVEAEDLGVYFCSQSTHVPWTFGGGTKLEIK | 5140 | 41900 | 1340

Reference: patent US20240400689A1 (ANTENGENE BIOLOGICS, published 2024)
